The values below come from paper PMC7614769.

The target of the test is human FcμR ectodomain (human) (UniProt O60667). Briefly: BLI; FcμR (20 μg/ml) captured on AMC (anti-mouse IgG-Fc capture) biosensors by the anti-FcμR antibody RR-16; full-length or proteolysed IgM 0.08-10 nM in solution; PBS, 0.005% Tween 20, 25 °C; apparent Kd from response against IgM concentration, 1:1 binding model.

“And” between values parts separate entries of the source, which are not always exact repeats. Equal values may be shown once.

Chain of Full-length IgM (myeloma), pentamer with J chain (P01591 whole entry, looked up): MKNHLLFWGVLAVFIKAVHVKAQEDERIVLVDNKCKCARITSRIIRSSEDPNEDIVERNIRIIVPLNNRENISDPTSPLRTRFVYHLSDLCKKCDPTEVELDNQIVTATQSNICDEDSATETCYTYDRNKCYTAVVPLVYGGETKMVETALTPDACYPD
Chain of human FcμR ectodomain (human) (O60667 17-251): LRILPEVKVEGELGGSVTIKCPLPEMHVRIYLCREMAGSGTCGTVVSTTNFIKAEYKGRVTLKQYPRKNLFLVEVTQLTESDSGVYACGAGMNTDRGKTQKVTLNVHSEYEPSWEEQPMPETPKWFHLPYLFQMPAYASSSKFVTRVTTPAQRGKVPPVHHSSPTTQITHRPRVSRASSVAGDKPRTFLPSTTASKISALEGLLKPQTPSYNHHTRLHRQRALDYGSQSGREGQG

For “Full-length IgM (myeloma), pentamer with J chain (from UniProt P01591 23-159) (antibody)”, the Kd is 0.3 nM and 0.4 nM.
